Assay results: article PMC10850505, “Molecular mechanism of specific HLA-A mRNA recognition by the RNA-binding-protein hMEX3B to promote tumor immune escape”
Numbering of substitutions follows the chain as printed. In names and notes the source's numbering stands.

How the values were obtained:
hMEX3B KH1 WT [1] = biological target: T1, hMEX3B KH1 WT (Homo sapiens, UniProt Q6ZN04 56-144); test: ITC; N 0.89; ITC at 298 K, protein injected into RNA, both dialyzed in the same buffer (composition not in the material; purification SEC buffer 2 M NaCl, 20 mM Tris pH 7.5); NMR at 298 K, 0.1 mM protein; settings: protein: recombinant; tags: modified pET28a without thrombin site (His tag likely retained)
T1 sequence: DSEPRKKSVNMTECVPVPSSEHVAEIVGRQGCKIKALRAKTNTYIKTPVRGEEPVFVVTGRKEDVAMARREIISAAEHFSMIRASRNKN

hMEX3B KH1/2 WT [2] = biological target: T2, hMEX3B KH1/2 WT (Homo sapiens, UniProt Q6ZN04 56-230); test: ITC; ITC at 298 K, protein injected into RNA, both dialyzed in the same buffer (composition not in the material; purification SEC buffer 2 M NaCl, 20 mM Tris pH 7.5); NMR at 298 K, 0.1 mM protein; settings: protein: recombinant; tags: 6xHis-SUMO cleaved (ULP1)
T2 sequence: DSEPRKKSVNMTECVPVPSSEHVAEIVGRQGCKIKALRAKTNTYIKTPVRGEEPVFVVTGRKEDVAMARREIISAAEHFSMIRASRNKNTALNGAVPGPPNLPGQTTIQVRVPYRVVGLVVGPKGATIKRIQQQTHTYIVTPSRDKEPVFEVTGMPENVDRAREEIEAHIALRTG

hMEX3B KH1/2 WT [3] = biological target: T2, hMEX3B KH1/2 WT; test: ITC; N 0.84; text says larger than 1.11 uM; ITC at 298 K, protein injected into RNA, both dialyzed in the same buffer (composition not in the material; purification SEC buffer 2 M NaCl, 20 mM Tris pH 7.5); NMR at 298 K, 0.1 mM protein; settings: protein: recombinant; tags: 6xHis-SUMO cleaved (ULP1)
hMEX3B KH2 WT [4] = biological target: T3, hMEX3B KH2 WT (Homo sapiens, UniProt Q6ZN04 156-230); test: ITC; N 1.02; ITC at 298 K, protein injected into RNA, both dialyzed in the same buffer (composition not in the material; purification SEC buffer 2 M NaCl, 20 mM Tris pH 7.5); NMR at 298 K, 0.1 mM protein; settings: protein: recombinant; tags: modified pET28a without thrombin site (His tag likely retained)
T3 sequence: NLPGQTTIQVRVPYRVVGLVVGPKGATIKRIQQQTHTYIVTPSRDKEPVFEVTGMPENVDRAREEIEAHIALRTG

hMEX3B KH1 WT [5] = biological target: T1, hMEX3B KH1 WT; test: ITC; ITC at 298 K, protein injected into RNA, both dialyzed in the same buffer (composition not in the material; purification SEC buffer 2 M NaCl, 20 mM Tris pH 7.5); NMR at 298 K, 0.1 mM protein; settings: protein: recombinant; tags: modified pET28a without thrombin site (His tag likely retained)
hMEX3B KH2 WT [6] = biological target: T3, hMEX3B KH2 WT; test: as above; settings: protein: recombinant; tags: modified pET28a without thrombin site (His tag likely retained)
hMEX3B KH1/2 WT [7] = biological target: T2, hMEX3B KH1/2 WT; test: ITC; N 0.89; ITC at 298 K, protein injected into RNA, both dialyzed in the same buffer (composition not in the material; purification SEC buffer 2 M NaCl, 20 mM Tris pH 7.5); NMR at 298 K, 0.1 mM protein; settings: protein: recombinant; tags: 6xHis-SUMO cleaved (ULP1)
hMEX3B KH1/2 WT [8] = biological target: T2, hMEX3B KH1/2 WT; test: ITC; N 0.91; ITC at 298 K, protein injected into RNA, both dialyzed in the same buffer (composition not in the material; purification SEC buffer 2 M NaCl, 20 mM Tris pH 7.5); NMR at 298 K, 0.1 mM protein; settings: protein: recombinant; tags: 6xHis-SUMO cleaved (ULP1)
[9] = biological target: T4, hMEX3B KH1/2 (G177D/G180D) (Homo sapiens, UniProt Q6ZN04 56-230, G177D;G180D); test: ITC; N 0.89; ITC at 298 K, protein injected into RNA, both dialyzed in the same buffer (composition not in the material; purification SEC buffer 2 M NaCl, 20 mM Tris pH 7.5); NMR at 298 K, 0.1 mM protein; settings: protein: recombinant; tags: 6xHis-SUMO cleaved (ULP1)
T4 sequence: T2 sequence with G122D, G125D

[10] = biological target: T5, hMEX3B KH1/2 (T102A/R105A) (Homo sapiens, UniProt Q6ZN04 56-230, T102A;R105A); test: ITC; N 0.79; ITC at 298 K, protein injected into RNA, both dialyzed in the same buffer (composition not in the material; purification SEC buffer 2 M NaCl, 20 mM Tris pH 7.5); NMR at 298 K, 0.1 mM protein; settings: protein: recombinant; tags: 6xHis-SUMO cleaved (ULP1)
T5 sequence: T2 sequence with T47A, R50A

hMEX3B KH1 WT [11] = biological target: T1, hMEX3B KH1 WT; test: ITC; N 1.91; ITC at 298 K, protein injected into RNA, both dialyzed in the same buffer (composition not in the material; purification SEC buffer 2 M NaCl, 20 mM Tris pH 7.5); NMR at 298 K, 0.1 mM protein; settings: protein: recombinant; tags: modified pET28a without thrombin site (His tag likely retained)
[12] = biological target: T6, hMEX3B KH1/2 (T196A/R199A) (Homo sapiens, UniProt Q6ZN04 56-230, T196A;R199A); test: ITC; N 0.68; ITC at 298 K, protein injected into RNA, both dialyzed in the same buffer (composition not in the material; purification SEC buffer 2 M NaCl, 20 mM Tris pH 7.5); NMR at 298 K, 0.1 mM protein; settings: protein: recombinant; tags: 6xHis-SUMO cleaved (ULP1)
T6 sequence: T2 sequence with T141A, R144A

hMEX3B KH1/2 (G4D) = biological target: T7, hMEX3B KH1/2 (G4D) (Homo sapiens, UniProt Q6ZN04 56-230, G83D;G86D;G177D;G180D); test: ITC; ITC at 298 K, protein injected into RNA, both dialyzed in the same buffer (composition not in the material; purification SEC buffer 2 M NaCl, 20 mM Tris pH 7.5); NMR at 298 K, 0.1 mM protein; settings: protein: recombinant; tags: 6xHis-SUMO cleaved (ULP1)
T7 sequence: T2 sequence with G28D, G31D, G122D, G125D

hMEX3B KH1/2 (TR4A) = biological target: T8, hMEX3B KH1/2 (TR4A) (Homo sapiens, UniProt Q6ZN04 56-230, T102A;R105A;T196A;R199A); test: as above; settings: protein: recombinant; tags: 6xHis-SUMO cleaved (ULP1)
T8 sequence: T2 sequence with T47A, R50A, T141A, R144A

hMEX3B KH1/2 (G83D/G86D) = biological target: T9, hMEX3B KH1/2 (G83D/G86D) (Homo sapiens, UniProt Q6ZN04 56-230, G83D;G86D); test: ITC; N 0.67; ITC at 298 K, protein injected into RNA, both dialyzed in the same buffer (composition not in the material; purification SEC buffer 2 M NaCl, 20 mM Tris pH 7.5); NMR at 298 K, 0.1 mM protein; settings: protein: recombinant; tags: 6xHis-SUMO cleaved (ULP1)
T9 sequence: T2 sequence with G28D, G31D

hMEX3B KH2 WT [13] = biological target: T3, hMEX3B KH2 WT; test: ITC; N 1.79; ITC at 298 K, protein injected into RNA, both dialyzed in the same buffer (composition not in the material; purification SEC buffer 2 M NaCl, 20 mM Tris pH 7.5); NMR at 298 K, 0.1 mM protein; settings: protein: recombinant; tags: modified pET28a without thrombin site (His tag likely retained)
hMEX3B KH1/2 WT [14] = biological target: T2, hMEX3B KH1/2 WT; test: ITC; N 0.94; ITC at 298 K, protein injected into RNA, both dialyzed in the same buffer (composition not in the material; purification SEC buffer 2 M NaCl, 20 mM Tris pH 7.5); NMR at 298 K, 0.1 mM protein; settings: protein: recombinant; tags: 6xHis-SUMO cleaved (ULP1)
hMEX3B KH1/2 WT [15] = biological target: T2, hMEX3B KH1/2 WT; test: ITC; N 0.96; ITC at 298 K, protein injected into RNA, both dialyzed in the same buffer (composition not in the material; purification SEC buffer 2 M NaCl, 20 mM Tris pH 7.5); NMR at 298 K, 0.1 mM protein; settings: protein: recombinant; tags: 6xHis-SUMO cleaved (ULP1)

## UGUAAC (ssRNA) [6-nt RNA UGUAAC]
hMEX3B KH1 WT [1]
  Kd: 10.3 ± 0.61 µM

## CCCCCCCCCCCC (ssRNA) [C12 RNA]
hMEX3B KH1/2 WT [2]
  binding result: no binding

## UGUAACCUGAGC (ssRNA) [switched 12-nt RNA]
hMEX3B KH1/2 WT [3]
  Kd: > 1.11 µM

## CUGAGC (ssRNA) [6-nt RNA CUGAGC]
hMEX3B KH2 WT [4]
  Kd: 9.57 ± 0.99 µM

## CCCCCC (ssRNA) [C6 RNA]
hMEX3B KH1 WT [5]
  binding result: no binding
hMEX3B KH2 WT [6]
  binding result: no binding

## CUGAGCUGUCAC (ssRNA) [12-nt RNA A10C]
hMEX3B KH1/2 WT [7]
  Kd: 1.58 ± 0.24 µM

## CUGCGCUGUAAC (ssRNA) [12-nt RNA A4C]
hMEX3B KH1/2 WT [8]
  Kd: 2.1 ± 0.31 µM

## CUGAGCUGUAAC (ssRNA) [12-nt RNA]
[9]
  Kd: 7.42 ± 1.32 µM
[10]
  Kd: 2.08 ± 0.29 µM
hMEX3B KH1 WT [11]
  Kd: 26.2 ± 7.4 µM
[12]
  Kd: 5.98 ± 0.59 µM
hMEX3B KH1/2 (G4D)
  binding result: no binding
hMEX3B KH1/2 (TR4A)
  binding result: no binding
hMEX3B KH1/2 (G83D/G86D)
  Kd: 10.4 ± 1.29 µM
hMEX3B KH2 WT [13]
  Kd: 21.7 ± 6.87 µM
hMEX3B KH1/2 WT [8]
  Kd: 0.0436 ± 0.00763 µM

## CUGAGCUGUACC (ssRNA) [12-nt RNA A11C]
hMEX3B KH1/2 WT [14]
  Kd: 0.89 ± 0.09 µM

## CCGAGCUGUAAC (ssRNA) [12-nt RNA U2C]
hMEX3B KH1/2 WT [15]
  Kd: 0.72 ± 0.09 µM
